# Measurements as given in patent publication US20050054822A1 (published 2005).
# T1: human MARCO (macrophage receptor with a collagenous structure) (human, UniProt Q9UEW3 1-520)
# T1 construct: also called HIN-2 receptor
# T1 sequence: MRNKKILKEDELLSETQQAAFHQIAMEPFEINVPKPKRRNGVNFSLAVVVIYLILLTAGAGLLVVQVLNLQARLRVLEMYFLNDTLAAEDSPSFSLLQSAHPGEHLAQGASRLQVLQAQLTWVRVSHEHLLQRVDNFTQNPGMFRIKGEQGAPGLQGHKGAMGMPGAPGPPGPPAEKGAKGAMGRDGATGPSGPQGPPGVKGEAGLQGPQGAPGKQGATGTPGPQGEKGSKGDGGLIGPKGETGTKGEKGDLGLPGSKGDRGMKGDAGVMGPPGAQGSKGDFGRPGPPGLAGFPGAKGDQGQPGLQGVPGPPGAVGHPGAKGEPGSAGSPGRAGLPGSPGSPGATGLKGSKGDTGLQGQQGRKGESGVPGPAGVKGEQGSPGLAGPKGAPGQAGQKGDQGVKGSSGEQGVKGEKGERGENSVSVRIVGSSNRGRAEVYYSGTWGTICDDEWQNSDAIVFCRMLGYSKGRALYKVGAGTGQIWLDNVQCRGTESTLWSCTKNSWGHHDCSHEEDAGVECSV
# Target: T1, human MARCO (macrophage receptor with a …)
# Test: staining of retrovirally transduced U937 cells with FLAG-HIN-2
# Source text: cDNA for both MARCO and SP-C were subcloned into the MSCV-IRES retroviral vector, which contains an IRES element followed by the gene encoding green fluorescent protein (GFP). Briefly, for MARCO, full length cDNA fragment encoding MARCO was amplified by PCR from the single MARCO expression cell clone cDNA with two primers from the human lung retroviral cDNA library (Strategene). The amplified cDNA fragment was digested with Sal I and Not I and cloned into the Xho I and Not I site of MSCV-GFP plasmid and PRK plasmids to make MSCV-MARCO and PRK-MARCO. SP-C cDNA was similarly prepared. Viruses were produced and used to infect U937 cells, and the infected cells were stained with FLAG-HIN-2. The FLAG-HIN-2 specifically stained the U937 cell line transduced with retroviruses encoding the MARCO, but no staining was detected on uninfected, MSCV-empty vector infected, or SP-C infected cells (data not shown).
binder,measurement,value
"FLAG-HIN-2 (mature human HIN-2 with a carboxy-terminal Flag tag, secreted from 293 cells) (ligand, also called HIN-2-FLAG; UGRP1; not shown: C-terminal Flag tag from the PRK-C-FLAG vector; The tagged mature protein is stated to be 86 amino acids, so 14 residues) FLINKVPLPVDKLAPLPLDNILPFMDPLKLLLKTLGISVEHLVEGLRKCVNELGPEASEAVKKLLEALSHLV",binding result,binds
